Experimental data: patent US20230058779A1, “COMBINATION CANCER TREATMENT USING A PD-1 ANTAGONIST, AN ILT4 ANTAGONIST, AND LENVATINIB OR SALTS THEREOF” (Merck Sharp & Dohme LLC, priority 2020, published 2023)

Test system: participants with advanced solid tumors
Assay: Phase 1 open label, multi-arm, multi-center study of MK-4830 as monotherapy or in combination with pembrolizumab (NCT03564691)
Format: in vivo, human
Settings: 1600 mg dose level, MK-4830 monotherapy cohort

MK-4830: anti-ILT4 antibody; light chain SEQ ID NO:5, heavy chain SEQ ID NO:10
transient Grade 3 blood pressure increase: one episode
